Laboratory results published in US20210138083A1 (INATHERYS, published 2021).

Tests used:
[1] = molecular target: T1, human transferrin receptor (Transferrin receptor protein 1 isoform 1, Homo sapiens, NCBI NP_003225.2) (Homo sapiens, UniProt P02786 1-760); assay: cell-based or functional assay
[2] = molecular target: T1, human transferrin receptor (Transferrin …); assay: flow cytometry, biotinylated antibody on THP-1 and MEC-1 cells, streptavidin Alexa F488
Experimental: Serial dilutions (5 to 0.05 ug/mL) of both biotinylated antibodies (antibody A24 and antibody of ADC INA01-SDV1) were performed and incubated on THP-1 and MEC-1 cell lines. The binding of the diluted antibodies was detected by Flow cytometry using streptavidin Alexa F488 (available at ThermoFisher scientific).

T1 sequence (P02786 whole entry, canonical isoform): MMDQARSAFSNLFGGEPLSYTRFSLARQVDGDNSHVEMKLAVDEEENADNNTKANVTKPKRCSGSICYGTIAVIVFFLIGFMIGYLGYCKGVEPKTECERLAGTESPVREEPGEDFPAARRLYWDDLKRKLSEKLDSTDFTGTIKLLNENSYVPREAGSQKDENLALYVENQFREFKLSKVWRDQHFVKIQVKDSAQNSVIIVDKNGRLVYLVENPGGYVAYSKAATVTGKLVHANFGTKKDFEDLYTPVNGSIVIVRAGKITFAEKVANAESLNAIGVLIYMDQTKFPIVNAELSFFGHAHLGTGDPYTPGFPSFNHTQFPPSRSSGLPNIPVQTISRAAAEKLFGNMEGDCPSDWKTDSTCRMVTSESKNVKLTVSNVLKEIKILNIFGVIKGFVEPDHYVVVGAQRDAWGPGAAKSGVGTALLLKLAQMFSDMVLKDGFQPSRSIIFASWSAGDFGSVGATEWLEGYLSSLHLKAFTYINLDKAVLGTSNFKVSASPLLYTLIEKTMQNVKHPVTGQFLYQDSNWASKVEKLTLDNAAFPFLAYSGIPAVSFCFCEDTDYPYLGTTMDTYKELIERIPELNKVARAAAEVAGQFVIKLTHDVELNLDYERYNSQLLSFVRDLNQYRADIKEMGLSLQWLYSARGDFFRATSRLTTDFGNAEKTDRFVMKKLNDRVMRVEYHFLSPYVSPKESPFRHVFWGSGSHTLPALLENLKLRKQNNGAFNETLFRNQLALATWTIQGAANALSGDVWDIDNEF

Row | Binder | IC50 of cell proliferation of HL-60 acute myeloid leukemia cell line [1] | binding result [2]
1 | INA01-SDV1 (antibody, human IgG4 S228P, kappa, V domains shown, linker APN (formula IV)-valine-citrulline-para-aminobenzyl ester-MMAE attached through the cysteine residues (thiols); biotinylated in Example 1) VH: QVQLVQSGPELKKPGASVKVSCKASGYTFTNQGMNWVKQAPGKGLKWMGWINTYTGEPINADDFKGRFVISLDTSASTAYLQISSLKAEDTAVYFCVREGWDSMDYWGQGTSVTVSS VL: QIVLTQSPATLSVSPGERATLSCSASSSVNYMHWFQQKPGQSPRLLIYSTSNRATGIPARFSGSGSGTSYTLTISSLEPEDFAVYYCQQRSSYPLTFGQGTKLEIKR | 0.08 µg/mL | –
2 | A24 (antibody, V domains shown, biotinylated in Example 1, Mouse monoclonal IgG (IgG2kappa) as disclosed in WO 2005/111082; also called antibody A24; murine A24 antibody) VH: QIQLVQSGPELKKPGETVKISCKASGYTFTNQGMNWVKQAPGKGLKWMGWINTYTGEPINADDFKGRFAISLETSASTAYLQINNLKNEDMATYFCVREGWDSMDYWGQGTSVTVSS VL: QIVLTQSPAIMSASPGEKVTITCSASSSVNYMHWFQQKPGTSPKLWIYSTSNLASGVPARFSGSGSGTSYSLTISRMEAEDAATYYCQQRSSYPLTFGAGTKLELKR | – | binds
